According to article PMC8311496:

Tested on: PE6 (Mycobacterium tuberculosis)
Conditions: 10 mM Tris-HCl pH 7.4, 100 mM NaCl, 298 K (fluorescence titration)

With dsDNA (unspecified) the Kd was 1.4 µM.
